Data from patent publication CN113980129A (DONGDA BIOTECHNOLOGY SUZHOU CO LTD, dated 2022).
Substitutions are numbered along the chain they refer to. In names and notes the source's numbering stands. Blank lines part the entries; values can stand above or below the binder they belong to.

How the values were obtained:
[1] = molecular target: T1, 重组人IL-11 (recombinant human interleukin-11) (human, UniProt P20809 22-199); assay: ELISA, IL-11 coated on plate
T1 construct: Called recombinant human IL-11 as immunogen; the assays say only IL-11; also called IL-11抗原; IL-11-Biotin
T1 sequence (looked up): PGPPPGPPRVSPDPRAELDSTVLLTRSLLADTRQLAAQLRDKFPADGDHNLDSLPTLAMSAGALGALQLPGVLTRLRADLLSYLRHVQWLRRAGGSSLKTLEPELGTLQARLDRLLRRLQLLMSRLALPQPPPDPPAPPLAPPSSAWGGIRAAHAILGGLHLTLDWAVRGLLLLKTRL

[2] = molecular target: T1, 重组人IL-11 (recombinant human …); assay: cell-based or functional assay
[3] = molecular target: T1, 重组人IL-11 (recombinant human …); assay: ELISA, IL-11 coated on plate; remark: listed apart in the source
[4] = molecular target: T1, 重组人IL-11 (recombinant human …); assay: FACS, blocking of IL-11-biotin binding to 293T-IL-11Rα/gp130 cells
[5] = molecular target: T1, 重组人IL-11 (recombinant human …); assay: SPR (Biacore), antibody captured on anti-human IgG CM5 chip, IL-11 as analyte

B1: 10C2 (antibody, V domains shown)
VH: QVHLQQSGTELMKPGASVKISCKAPGYTFSSYWIEWVKQRPGHGLEWIGEILPGSGNTNYNEKFKGKATFTADTSSNTAYMQLSSLTSEDSAVYYCASPSSTVDYAMDYWGQGTSVTVSS
VL: DIVLTQSPASLGVSLGQRATISCRASRSVSTSGYNYMHWYQQKPGQPPKLLIFLASNLESGVPARFSGSGSGTDFTLNIHPVEEEDAATYHCQHSRELPYTFGGGTKLEIK
notes: Mouse hybridoma antibody purified on Protein A; also called 鼠源10C2
binding result [1]: binds

B2: 16E12 (antibody, V domains shown)
VH: QVQLQQSGAELVKPGASVKLSCKASGYTFTSYYMYWVKQRPGQGLEWIGEINPSNGGTDFNEKFKNKATLTVDKSSSTAYMQLSSLTSEDSAVYYCTREEIHYGYDKGFAYWGQGTLVTVSA
VL: NIMMTQSPSSLAVSAGEKVTMSCKSSQSVLHSSNQKNYLAWYQQKPGQSPKLLIYWASTRESGVPDRFTGSGSGTDFTLTISSIQAEDLAVYYCHQYFSLWTFGGGTKLEIK
notes: Mouse hybridoma antibody purified on Protein A; also called 鼠源16E12
binding result [1]: binds

B3: 18B6 (antibody, V domains shown)
VH: B2 VH with S31N, M34I, V37M, D59N, N66S, Y95F, T97S
VL: B2 VL with S10Y, H31N, T59I, I84V, Y93F, L100S, K108R
notes: Mouse hybridoma antibody purified on Protein A
binding result [1]: binds

B4: hu16E12-hIgG4 (antibody, V domains shown)
VH: QVQLVQSGAEVKKPGASVKVSCKASGYTFTSYYMYWVRQAPGQGLEWIGEINPSNGGTDFNEKFKNRVTMTVDTSISTAYMELSRLRSDDTAVYYCTREEIHYGYDKGFAYWGQGTLVTVSS
VL: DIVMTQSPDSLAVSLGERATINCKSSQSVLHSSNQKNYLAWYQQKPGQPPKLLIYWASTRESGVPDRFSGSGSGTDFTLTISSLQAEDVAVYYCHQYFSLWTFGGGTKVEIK
notes: also called 16E12人源化抗体; hu16E12 Wild Type
IC50, STAT3 luciferase reporter in DLD1-IL-11R-pSTAT3-Luc cells [2]: 1.16 ng/mL | EC50 [3]: 0.0624 µg/mL | IC50 [4]: 0.0679 µg/mL | Kd [5]: 0.0158 nM | koff [5]: 4.66e-05 s⁻¹ | kon [5]: 2.96e+06 M⁻¹ s⁻¹

B14: 26A6 (antibody, V domains shown)
VH: QIQLVQSGPELKKPGETVKISCKASGYTFTNYGMNWVKQAPGKGLKWMGWINTNTGETTYAEEFKGRFAFSLEASVSTAHLQINNLKNEDTATYFCAKEDFYGMDYWGQGSSVTVSS
VL: NIVMTQTPKFLLVSAGDRVTMTCKASQSVSNDVVWYQQKPGQSPKLLIYYASNRYTGVPDRFIGSGYGTEFTFTISTVQAEDLAVYFCQQDYSFPYTFGGGTKLEIK
notes: as for B3
binding result [1]: binds

B15: 14F6 (antibody, V domains shown)
VH: EVKLEESGGGLVQPGGSMKLSCVASGFTFSKYWMNWVRQSPEKGLEWVAEIRLKSDNYATQYAESVKGRFTMSRDDSKSSVYLQMKNLRAEDSGIYYCTKEGYDGYAMDYWGQGTSVTVSS
VL: B14 VL with N1R, M21I, S28N, V29I, S30N, I63T, E70D, S93I, F94S, Y96W
notes: as for B3
binding result [1]: binds

B17: 14E1 (antibody, V domains shown)
VH: EVQLQQSGPVLVKPGASVKMSCKASGYTFTDYYMNWVKQSHGKSLEWIGVFNPYNGGTVYNQKFKGKATLTVDKSSSTAYMELSSLTSEDSAVYYCAREDYGSYYVVFDYWGQGTTLTVSS
VL: QIVLSQSPAILSASPGEKVTMTCRASSSVSYMHWYQQKPGSSPKPWIYATSNLASGVPARFSGSGSGTSYSLTISRVEAEDAATYYCQHWSSNPLTFGAGTKLELK
notes: as for B3
binding result [1]: binds

B18: 1D12 (antibody, V domains shown)
VH: EVQLQQFGAELVKPGAAVKISCKASGYTFTDYNMDWVRQSHGKSLEWIGEINPNYDSTRYNQKFKGKATLTVDKSSSTAYMELRSLTSEDTAVYYCARSDYYAMDYWGQGTSVTVSS
VL: SIVMTQTPSFLLVSAGDRVTITCKASQSVSNDVAWYQQKPGQSPKLLIYYASNRFTGVPDRFTGSGFGTDFTFTISTVQTGDLAVYFCRQDYISPYTFGGGTKLEIK
notes: as for B3
binding result [1]: binds

B19: 16F3 (antibody, V domains shown)
VH: QVQLQQSGAELVRPGVSVKISCKGSGDTFTDYAMHWVKQSHAKSLEWIGVISTYYGDVSYNQKFKGKATMTVDKSSSTAYMELVRLTSEDSAIYYCARGYYDYAWFAYWGQGTLVTVSA
VL: QIVLTQSPAIMSASPGEKVTMTCSASSSLNYMHWYQQKSGTSPKRWIYDTSKLASGVPARFSGSGSGTSYSLTISSMEAEDAATYYCQQWSSNPLTFGAGTKLELK
notes: as for B3
binding result [1]: binds

B21: Control-3C6 (antibody, V domains shown)
VH: EVQLVQSGAEVKKPGASVKISCKASGYTFTDYNMDWVKQAPGQRLEWIGDINPHNGGPIYNQKFTGRATLTVDKSASTAYMELSSLRSEDTAVYYCARGELGHWYFDVWGQGTTVTVSS
VL: DIVLTQSPASLALSPGERATLSCRASKSVSTSGYSYIHWYQQKPGQAPRLLIYLASNLDSGVPARFSGSGSGTDFTLTISSLEEEDFATYYCQHSRDLPPTFGQGTKLEIKR
IC50, STAT3 luciferase reporter in DLD1-IL-11R-pSTAT3-Luc cells [2]: 178 ng/mL | EC50 [3]: 22.5 µg/mL | IC50 [4]: 4.19 µg/mL

Further lines, results first:

Kd [5]: 0.00187 nM | koff [5]: 3.91e-06 s⁻¹ | kon [5]: 2.09e+06 M⁻¹ s⁻¹
B5: hu16E12 L94H (antibody, V domains shown)
VH: B4 VH
VL: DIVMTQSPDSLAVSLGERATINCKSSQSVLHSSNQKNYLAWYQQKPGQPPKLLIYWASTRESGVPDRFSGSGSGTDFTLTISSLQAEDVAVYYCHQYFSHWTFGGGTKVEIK

Kd [5]: 0.0157 nM | koff [5]: 5.76e-05 s⁻¹ | kon [5]: 3.68e+06 M⁻¹ s⁻¹
B6: hu16E12 K64Q N65G (antibody, V domains shown)
VH: B4 VH with K65Q, N66G
VL: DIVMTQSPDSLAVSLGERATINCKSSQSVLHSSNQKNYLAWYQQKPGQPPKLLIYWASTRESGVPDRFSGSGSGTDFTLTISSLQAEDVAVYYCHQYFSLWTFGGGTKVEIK
notes: CDR mutant of hu16E12 (IgG4); placed on VH (CDR2, probably Kabat numbering) by inference

Kd [5]: 0.0363 nM | koff [5]: 8.54e-05 s⁻¹ | kon [5]: 2.35e+06 M⁻¹ s⁻¹
B7: hu16E12 E61Q N65G (antibody, V domains shown)
VH: B4 VH with E62Q, N66G
VL: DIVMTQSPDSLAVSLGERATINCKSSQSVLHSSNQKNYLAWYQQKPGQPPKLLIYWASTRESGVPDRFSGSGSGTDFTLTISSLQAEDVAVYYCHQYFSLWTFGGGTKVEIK
notes: CDR mutant of hu16E12 (IgG4); placed on VH (CDR2, probably Kabat) by inference

Kd [5]: 0.012 nM | koff [5]: 3.56e-05 s⁻¹ | kon [5]: 2.96e+06 M⁻¹ s⁻¹
B8: hu16E12 G55A (antibody, V domains shown)
VH: B4 VH with G56A
VL: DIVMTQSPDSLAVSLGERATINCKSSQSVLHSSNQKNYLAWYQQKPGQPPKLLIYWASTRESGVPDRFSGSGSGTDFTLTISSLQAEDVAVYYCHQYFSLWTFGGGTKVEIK
notes: as for B7

Kd [5]: 0.00387 nM | koff [5]: 9.32e-06 s⁻¹ | kon [5]: 2.41e+06 M⁻¹ s⁻¹
B9: hu16E12 G55V (antibody, V domains shown)
VH: B4 VH with G56V
VL: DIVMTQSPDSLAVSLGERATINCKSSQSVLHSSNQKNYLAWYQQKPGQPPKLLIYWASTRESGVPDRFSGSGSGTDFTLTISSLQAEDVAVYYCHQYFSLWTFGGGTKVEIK
notes: as for B7

Kd [5]: 0.0245 nM | koff [5]: 7e-05 s⁻¹ | kon [5]: 2.86e+06 M⁻¹ s⁻¹
B10: hu16E12 N54S (antibody, V domains shown)
VH: B4 VH with N55S
VL: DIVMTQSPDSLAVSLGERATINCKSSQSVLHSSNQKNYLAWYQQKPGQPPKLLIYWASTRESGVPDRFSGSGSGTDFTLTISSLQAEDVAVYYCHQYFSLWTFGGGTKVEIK
notes: as for B7

Kd [5]: 0.0189 nM | koff [5]: 5.25e-05 s⁻¹ | kon [5]: 2.78e+06 M⁻¹ s⁻¹
B11: hu16E12 N65G (antibody, V domains shown)
VH: B4 VH with N66G
VL: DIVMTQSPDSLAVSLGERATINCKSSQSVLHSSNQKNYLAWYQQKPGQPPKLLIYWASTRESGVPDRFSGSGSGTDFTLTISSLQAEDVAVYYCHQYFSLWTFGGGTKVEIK
notes: as for B7

Kd [5]: 0.0363 nM | koff [5]: 0.000101 s⁻¹ | kon [5]: 2.78e+06 M⁻¹ s⁻¹
B12: hu16E12 N54Q (antibody, V domains shown)
VH: B4 VH with N55Q
VL: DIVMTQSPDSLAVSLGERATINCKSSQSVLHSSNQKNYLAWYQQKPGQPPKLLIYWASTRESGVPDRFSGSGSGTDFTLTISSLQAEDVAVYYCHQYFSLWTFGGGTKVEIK
notes: as for B7

Kd [5]: 0.0268 nM | koff [5]: 7.51e-05 s⁻¹ | kon [5]: 2.81e+06 M⁻¹ s⁻¹
B13: hu16E12 N60A N65G (antibody, V domains shown)
VH: B4 VH with N61A, N66G
VL: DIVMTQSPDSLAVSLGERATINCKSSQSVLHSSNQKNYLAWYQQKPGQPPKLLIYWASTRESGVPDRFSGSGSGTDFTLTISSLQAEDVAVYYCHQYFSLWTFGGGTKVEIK
notes: as for B7

IC50, STAT3 luciferase reporter in DLD1-IL-11R-pSTAT3-Luc cells [2]: 4.86 ng/mL | EC50 [3]: 0.0659 µg/mL | IC50 [4]: 0.0811 µg/mL | Kd [5]: 0.0149 nM | koff [5]: 2.2e-05 s⁻¹ | kon [5]: 1.47e+06 M⁻¹ s⁻¹
B16: hu10C2-hIgG4 (antibody, V domains shown)
VH: QVHLVQSGAEVKKPGSSVKVSCKAPGYTFSSYWIEWVRQAPGQGLEWIGEILPGSGNTNYNEKFKGRATFTADTSTSTAYMELSSLRSEDTAVYYCASPSSTVDYAMDYWGQGTLVTVSS
VL: EIVLTQSPGTLSLSPGERATLSCRASRSVSTSGYNYMHWYQQKPGQAPRLLIFLASNLESGIPDRFSGSGSGTDFTLTISRLEPEDFAVYYCQHSRELPYTFGQGTKLEIK
notes: also called 10C2人源化抗体

binding result [1]: binds
B20: 4A2 (antibody, V domains shown)
VH: QVQLQQSGGELVRPGVSVKISCKGSGYKITDYAMHWVKQSHAESLEWIGVISSYYGDTSYNQKFKGKATMTVDISSSTAYMEIARLTSEDSAIYYCAIGLWDVGYFDYWGQGTTLTVSS
VL: B19 VL with L29V, N30S, H33Q, S91V, N93K, P94A, L95V, A99S, L105I
notes: as for B3

binding result [1]: binds
B22: 6B9 (antibody, V domains shown)
VH: EVQLVESGGGSVKPGGSLKLSCAASGFTFSNYAMSWVRQSPEKRLEWVAEISNGGSYTYYPDTVTGRFTISRDNAKNTLYLEMSSLRSEDTAMYYCVRHYDGYYGGILDFAMDYWGQGTSVTVSS
VL: DIQMTQSPSSLSASLGGKVTITCKASQDINKCIAWYQHKPGKGPRLLIHYTSTLQPGIPSRFSGSGSGRDYSFTISNLEPEDIATYYCLQYDYLHTFGGGTKLEIK
notes: as for B3
